Substitutions are numbered along the chain they refer to.
B1: AB14 (antibody, V domains shown)
VH: EVQLVESGGGLVQPKGSLKLSCAASGFTFNTYAMNWVRQAPGKGLEWVARIRSKSNNYATYYVDSVKDRFTISRDDSQSMLYLQINNLKTEDTAMYYCVRGRELGPYSAMDYWGQGTSVTVSS
VL: DIVMTQAAPSVPVTPGESVSISCRSSKSLLHSNGNTYLYWFLQRPGQSPQLLIYRMSNLASGVPDRFSGSGSGTAFTLRISRVEAEDVGLYYCMQHLEYPFTFGGGTKLEIK
notes: Hybridoma monoclonal; Same VH/VL entries as AB15; also called antibody 14; clone 14
B2: AB12 (antibody, V domains shown)
VH: B1 VH with T28A, V48I, I51L, N57F, V63A, I85M, M95V, Y107S, S108Y
VL: B1 VL with L90V, F101Y
notes: Hybridoma monoclonal; also called antibody 12; clone 12
B3: AB1 (antibody, V domains shown)
VH: QVQLKESGPGLVKPSETLSLTCTVSGFSLTSYHISWVRQPPGKGLEWMGVIWGDGSKTYNSALKSRLSISRDTSKSQVFLKMRSLKTEDTATYYCARGGDSGFAYWGQGTLVTVSS
VL: DIQMTQSPASLSASLEEIVTITCQASQDIGNWLSWYQQKPGKSPQLLIYGTTNLADGVPSRFSGSRSGTQYSLKISRLQVEDIGIYYCLQAYSVPLTFGSGTKLEIK
notes: Hybridoma monoclonal (mouse or rat); Same VH/VL entries as AB2; also called antibody 1; clone 1
B4: AB4 (antibody, V domains shown)
VH: B3 VH with S31G, I34V, S56R, K57T, R83S
VL: B3 VL with T51A, N53S, Y71F, S93I, I106S
notes: Hybridoma monoclonal; also called antibody 4; clone 4
B5: AB3 (antibody, V domains shown)
VH: B3 VH with S56K, K57T, R83N
VL: B3 VL
notes: Hybridoma monoclonal; also called antibody 3; clone 3

Experiments:
human CCR8 [1] = target: T1, human CCR8 (human, UniProt P51685 1-355); test: flow blocking, PBMC CCR8+CD4+; competitor PE-AB3
T1 construct: Native CCR8 on human PBMC (CCR8+ CD3+ or CCR8+ CD4+ lymphocytes); also called chemokine (C-C motif) receptor 8
T1 sequence (P51685 whole entry): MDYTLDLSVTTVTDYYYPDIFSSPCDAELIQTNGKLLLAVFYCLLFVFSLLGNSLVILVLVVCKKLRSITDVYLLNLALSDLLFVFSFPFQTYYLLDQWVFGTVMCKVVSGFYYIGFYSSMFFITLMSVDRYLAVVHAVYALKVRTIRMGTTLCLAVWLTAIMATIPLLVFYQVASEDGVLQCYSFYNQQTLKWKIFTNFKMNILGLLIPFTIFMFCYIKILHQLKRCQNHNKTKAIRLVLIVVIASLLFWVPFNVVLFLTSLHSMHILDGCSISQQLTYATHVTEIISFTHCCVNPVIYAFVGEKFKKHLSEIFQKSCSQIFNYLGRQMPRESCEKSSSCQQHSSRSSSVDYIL
Procedure: (§1) For blocking studies, 100 μL of the cell suspension were incubated with 10 μg purified isotype control, AB1, AB2, AB3, AB4, AB5, AB8, AB9, AB10, AB11, AB12, AB13, AB14, AB15, and Commercial ABI antibodies, or isotype control, as blocking agents.
(§2) After incubation with the blocking agent, the cells were incubated with 0.25 μg of the indicated PE-conjugated antibody plus anti-human CD4 APC or anti-human CD3 for another 15 minutes in the dark and then washed 2 times with Cell Staining Buffer, and acquired in a FACSCanto II flow cytometer (BD Biosciences); the data was analyzed using FCS Express (De Novo Software); MFI correspond to the CCR8+ CD4+ lymphocytes or CCR8+ CD3+ lymphocytes.
(§3) Percentage original MFI was calculated by dividing the MFI of samples blocked with AB1, AB2, AB3, AB4, AB5, AB6, AB7, AB8, AB9, AB10, AB11, AB12, AB13, AB14, AB15, and Commercial ABI antibodies, by the MFI of samples blocked with the corresponding isotype control. This value was subtracted from 100 to get a blocking percentage. The formula is shown below: […]

human CCR8 [2] = target: T1, human CCR8; test: flow blocking, PBMC CCR8+CD4+; competitor PE-AB14
Procedure: as §1, §2

human CCR8 [3] = target: T1, human CCR8; test: flow blocking, PBMC CCR8+CD4+; competitor PE-AB11
Procedure: as §1, §2, §3

human CCR8 [4] = target: T1, human CCR8; test: flow blocking, PBMC CCR8+CD4+; competitor PE-AB2
Procedure: as §1, §2, §3

human CCR8 [5] = target: T1, human CCR8; test: flow blocking, PBMC CCR8+CD4+; competitor PE-AB10
Procedure: as §1, §2, §3

human CCR8 [6] = target: T1, human CCR8; test: flow blocking, PBMC CCR8+CD4+; competitor PE-AB1
Procedure: as §1, §2, §3

human CCR8 [7] = target: T1, human CCR8; test: flow blocking, PBMC CCR8+CD4+; competitor PE-AB4
Procedure: as §1, §2, §3

human CCR8 [8] = target: T1, human CCR8; test: flow blocking, PBMC CCR8+CD4+; competitor PE-AB5
Procedure: as §1, §2, §3

human CCR8 [9] = target: T1, human CCR8; test: flow blocking, PBMC CCR8+CD4+; competitor PE-433H
Procedure: as §1, §2

human CCR8 [10] = target: T1, human CCR8; test: flow blocking, PBMC CCR8+CD4+; competitor PE-AB12
Procedure: as §1, §2, §3

human CCR8 [11] = target: T1, human CCR8; test: flow blocking, PBMC CCR8+CD4+; competitor PE-AB6
Procedure: as §1, §2

human CCR8 [12] = target: T1, human CCR8; test: flow blocking, PBMC CCR8+CD4+; competitor PE-AB13
Procedure: as §1, §2

human CCR8 [13] = target: T1, human CCR8; test: flow blocking, PBMC CCR8+CD4+; competitor PE-AB15
Procedure: as §1, §2, §3

| Binder | % Blocking (human CCR8 [1]) [%] | % Positive cells (human CCR8 [1]) [%] | % Blocking (human CCR8 [2]) [%] | % Positive cells (human CCR8 [2]) [%] | % Blocking (human CCR8 [3]) [%] | % Positive cells (human CCR8 [3]) [%] | % Blocking (human CCR8 [4]) [%] | % Positive cells (human CCR8 [4]) [%] | % Blocking (human CCR8 [5]) [%] | % Positive cells (human CCR8 [5]) [%] | % Blocking (human CCR8 [6]) [%] | % Positive cells (human CCR8 [6]) [%] | % Blocking (human CCR8 [7]) [%] | % Positive cells (human CCR8 [7]) [%] | % Blocking (human CCR8 [8]) [%] | % Positive cells (human CCR8 [8]) [%] | % Blocking (human CCR8 [9]) [%] | % Positive cells (human CCR8 [9]) [%] | % Blocking (human CCR8 [10]) [%] | % Positive cells (human CCR8 [10]) [%] | also measured |
| --- | --- | --- | --- | --- | --- | --- | --- | --- | --- | --- | --- | --- | --- | --- | --- | --- | --- | --- | --- | --- | --- |
| B1 | -27.5 | 2.18 | 98.5 | 0.02 | 98.5 | 0.03 | -10.4 | 1.81 | 96 | 0.06 | -25.2 | 1.94 | -10.1 | 1.96 | 6.93 | 1.88 | 22.7 | 1.36 | 99.4 | 0.01 | % Blocking (human CCR8 [11]): -3.47%; % Positive cells (human CCR8 [11]): 2.09%; % Blocking (human CCR8 [12]): 96%; % Positive cells (human CCR8 [12]): 0.08%; % Blocking (human CCR8 [13]): 97.7%; % Positive cells (human CCR8 [13]): 0.03% |
| B2 | -34.5 | 2.3 | 100 | 0 | 99 | 0.02 | -32.9 | 2.18 | 87.8 | 0.18 | -29.7 | 2.01 | -33.1 | 2.37 | -2.48 | 2.07 | 60.2 | 0.7 | 99.4 | 0.01 | % Blocking (human CCR8 [11]): -15.3%; % Positive cells (human CCR8 [11]): 2.33%; % Blocking (human CCR8 [12]): 98.5%; % Positive cells (human CCR8 [12]): 0.03%; % Blocking (human CCR8 [13]): 94.6%; % Positive cells (human CCR8 [13]): 0.07% |
| B3 | 97.1 | 0.05 | 1.54 | 1.28 | -5.61 | 2.07 | 98.2 | 0.03 | 3.38 | 1.43 | 98.7 | 0.02 | 96.1 | 0.07 | 89.6 | 0.21 | 14.8 | 1.5 | -2.78 | 1.85 | % Blocking (human CCR8 [11]): 86.6%; % Positive cells (human CCR8 [11]): 0.27%; % Blocking (human CCR8 [12]): 10.1%; % Positive cells (human CCR8 [12]): 1.78%; % Blocking (human CCR8 [13]): -30.2%; % Positive cells (human CCR8 [13]): 1.68% |
| B4 | 98.2 | 0.03 | -15.4 | 1.5 | 4.59 | 1.87 | 98.8 | 0.02 | 0.68 | 1.47 | 100 | 0 | 94.9 | 0.09 | 87.1 | 0.26 | 1.14 | 1.74 | 1.11 | 1.78 | % Blocking (human CCR8 [11]): 87.1%; % Positive cells (human CCR8 [11]): 0.26%; % Blocking (human CCR8 [12]): 21.7%; % Positive cells (human CCR8 [12]): 1.55%; % Blocking (human CCR8 [13]): -33.3%; % Positive cells (human CCR8 [13]): 1.72% |
| B5 | 100 | 0 | -12.3 | 1.46 | 4.59 | 1.87 | 98.8 | 0.02 | -9.46 | 1.62 | 97.4 | 0.04 | 93.3 | 0.12 | 85.2 | 0.3 | 7.39 | 1.63 | 1.67 | 1.77 | % Blocking (human CCR8 [11]): 84.7%; % Positive cells (human CCR8 [11]): 0.31%; % Blocking (human CCR8 [12]): 21.2%; % Positive cells (human CCR8 [12]): 1.56%; % Blocking (human CCR8 [13]): -7.75%; % Positive cells (human CCR8 [13]): 1.39% |
